One molecule from patent US20050136049A1 (TRUBION PHARMACEUTICALS, published 2005) can be followed below.

In the experiment the target is T1, CD137 (4-1BB) (human, UniProt Q07011 24-255).
T1 construct: whole, on cells; also called CD137 on stimulated human PBMC
The experiment in a line: flow immunocytofluorimetry, hybridoma supernatant on anti-CD3 stimulated human PBMC, FITC goat anti-mouse IgG.

T1 sequence (Q07011 24-255): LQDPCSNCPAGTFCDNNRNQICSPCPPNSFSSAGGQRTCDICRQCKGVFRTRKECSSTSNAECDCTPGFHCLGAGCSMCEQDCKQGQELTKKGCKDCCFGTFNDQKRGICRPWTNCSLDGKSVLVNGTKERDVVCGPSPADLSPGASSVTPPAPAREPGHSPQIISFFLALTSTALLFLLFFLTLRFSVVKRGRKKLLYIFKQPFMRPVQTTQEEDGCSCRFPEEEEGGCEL
Description: Binding of 5B9 scFv IgG fusion protein or 5B9 murine monoclonal antibody was detected with FITC conjugated anti-human IgG or anti-mouse IgG, respectively.

B1: 5B9 monoclonal antibody (antibody, V domains shown)
VH: QVQLKQSGPGLVQSSQSLSITCTVSGFSLTTYAVHWVRQSPGKGLEWLGVIWSGGITDYNAAFISRLSITKDDSKSQVFFKMNSLQPNDTAIYYCARNGGDNYPYYYAMDYWGQGTSVTVSS
VL: DIVMTQAAFSNPVTLGTSASISCRSSKSLLHSNGITYLYWYLQKPGQSPQLLIYQMSNLASGVPDRFSSSGSGTDFTLRISRVEAEDVGVYYCAQNLELPLTFGAGTKLELKR
notes: also called 5B9 murine monoclonal antibody
Consider B1, for which the binding result is given as “binds”.
